Each sequence was assayed on Escherichia coli TOP10 (assay: shrunken log2 fold change of peptide-encoding DNA abundance (4.5 h post-induction vs induction); higher = less antimicrobial activity (less host growth inhibition)). Settings: time post-induction: 4.5 h; library: site-saturation at positions 5, 18, 19, 20.
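Also: peptides expressed intracellularly from a pBAD plasmid library in pooled LB shake-flask culture, induced with 0.3% L-arabinose, DNA abundance read by NGS, three biological replicates, DESeq2 with apeglm shrinkage.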

| Sequence | shrunken log2 fold change |
| --- | --- |
| RRIRKRPPRLPRPRPRPIKRPRP | 0.0734 |
| RRIRVRPPRLPRPRPRPGAFPRP | 0.0224 |
| RRIRLRPPRLPRPRPRPSPDPRP | 0.164 |
| RRIRLRPPRLPRPRPRPTACPRP | -0.0054 |
| RRIRSRPPRLPRPRPRPDRAPRP | 0.611 |
| RRIRWRPPRLPRPRPRPCEDPRP | 0.115 |
| RRIRHRPPRLPRPRPRPARSPRP | 0.0188 |
| RRIRERPPRLPRPRPRPCTFPRP | -0.129 |
| RRIRYRPPRLPRPRPRPTKPPRP | -0.013 |
| RRIRWRPPRLPRPRPRPTYSPRP | -0.163 |
| RRIRFRPPRLPRPRPRPDNQPRP | -0.834 |
| RRIRERPPRLPRPRPRPHIAPRP | -0.099 |
| RRIRPRPPRLPRPRPRPFCNPRP | -0.609 |
| RRIRQRPPRLPRPRPRPNEYPRP | -1.18 |
| RRIRFRPPRLPRPRPRPQLDPRP | 0.123 |
| RRIRWRPPRLPRPRPRPSAYPRP | -0.549 |
| RRIRYRPPRLPRPRPRPMSHPRP | -0.425 |
| RRIRHRPPRLPRPRPRPFCQPRP | -0.243 |
| RRIRTRPPRLPRPRPRPTIFPRP | -0.2 |
| RRIRARPPRLPRPRPRPKMEPRP | 0.229 |
| RRIRPRPPRLPRPRPRPPSEPRP | 0.447 |
| RRIRVRPPRLPRPRPRPWNPPRP | -0.0803 |
| RRIRIRPPRLPRPRPRPVRTPRP | -0.0633 |
| RRIRSRPPRLPRPRPRPMVQPRP | 0.13 |
| RRIRRRPPRLPRPRPRPPQEPRP | 0.405 |

| Sequence | shrunken log2 fold change |
| --- | --- |
| RRIRSRPPRLPRPRPRPGMCPRP | 0.0439 |
| RRIRRRPPRLPRPRPRPYQLPRP | -0.234 |
| RRIRYRPPRLPRPRPRPQTVPRP | -0.261 |
| RRIRVRPPRLPRPRPRPNQKPRP | -0.115 |
| RRIRRRPPRLPRPRPRPKNNPRP | -0.0641 |
| RRIRCRPPRLPRPRPRPRYAPRP | -0.229 |
| RRIRNRPPRLPRPRPRPRYGPRP | -0.0289 |
| RRIRYRPPRLPRPRPRPSPFPRP | 0.0737 |
| RRIRDRPPRLPRPRPRPQQTPRP | -0.252 |
| RRIRNRPPRLPRPRPRPRLNPRP | -0.212 |
| RRIRDRPPRLPRPRPRPRDMPRP | -0.0954 |
| RRIRERPPRLPRPRPRPRHMPRP | -0.0855 |
| RRIRTRPPRLPRPRPRPMNQPRP | -0.941 |
| RRIRERPPRLPRPRPRPDSSPRP | -0.509 |
| RRIRHRPPRLPRPRPRPGWHPRP | 0.208 |
| RRIRHRPPRLPRPRPRPMYFPRP | -0.00207 |
| RRIRCRPPRLPRPRPRPQLDPRP | -0.142 |
| RRIRNRPPRLPRPRPRPPKKPRP | -0.166 |
| RRIRERPPRLPRPRPRPVWYPRP | -0.383 |
| RRIRMRPPRLPRPRPRPRHVPRP | 0.437 |
| RRIRKRPPRLPRPRPRPPDAPRP | 1.35 |
| RRIRHRPPRLPRPRPRPDMQPRP | -0.106 |
| RRIRQRPPRLPRPRPRPHESPRP | -0.126 |
| RRIRLRPPRLPRPRPRPFLWPRP | -0.314 |
| RRIRWRPPRLPRPRPRPVRYPRP | 0.00421 |

| Sequence | shrunken log2 fold change |
| --- | --- |
| RRIRRRPPRLPRPRPRPIFQPRP | 0.303 |
| RRIRVRPPRLPRPRPRPMFHPRP | -0.22 |
| RRIRWRPPRLPRPRPRPSPPPRP | 0.423 |
| RRIRYRPPRLPRPRPRPYRMPRP | -0.725 |
| RRIRERPPRLPRPRPRPVGIPRP | 0.144 |
| RRIRVRPPRLPRPRPRPNFTPRP | 0.0054 |
| RRIRCRPPRLPRPRPRPFTLPRP | -0.048 |
| RRIRPRPPRLPRPRPRPTTCPRP | 0.262 |
| RRIRKRPPRLPRPRPRPQANPRP | 0.066 |
| RRIRDRPPRLPRPRPRPGYQPRP | -0.0782 |
| RRIRWRPPRLPRPRPRPIMKPRP | -0.0768 |
| RRIRMRPPRLPRPRPRPKWQPRP | -0.0255 |
| RRIRKRPPRLPRPRPRPEPHPRP | 0.829 |
| RRIRWRPPRLPRPRPRPYFSPRP | -0.722 |
| RRIRLRPPRLPRPRPRPREIPRP | 0.0725 |
| RRIRTRPPRLPRPRPRPDASPRP | 0.0856 |
| RRIRPRPPRLPRPRPRPDETPRP | -0.088 |
| RRIRHRPPRLPRPRPRPWAAPRP | -0.0958 |
| RRIRTRPPRLPRPRPRPTIKPRP | -0.051 |
| RRIRCRPPRLPRPRPRPRIMPRP | -0.293 |
| RRIRDRPPRLPRPRPRPFGWPRP | 0.903 |
| RRIRNRPPRLPRPRPRPNYKPRP | -0.827 |
| RRIRTRPPRLPRPRPRPHNCPRP | -0.113 |
| RRIRFRPPRLPRPRPRPSKPPRP | -0.0327 |
| RRIRDRPPRLPRPRPRPRGVPRP | 0.393 |
